From patent US20260263609A1 (NEW YORK UNIVERSITY, published 2026)
Substitutions are numbered along the chain they refer to. Blank lines part the entries; values can stand above or below the binder they belong to.

How the values were obtained:
[1] = biological target: T1, NRAS (human, UniProt P01111 1-174, limits assumed); experiment: BLI; biotinylated monobody on streptavidin tip, NRAS(WT)·GTPγS at 50, 25, 12.5 and 6.25 nM; global 1:1 fit
T1 construct: also called Neuroblastoma-RAS; NRAS (WT)

[2] = biological target: T2, NRAS (K135R) (human, UniProt P01111 1-174, limits assumed); experiment: BLI; sensorgrams at 100 nM and 25 nM with fit; nucleotide state not marked
T2 construct: also called NRAS mutant with the H/KRAS-mimicking mutation K135R

[3] = biological target: T1, NRAS; experiment: BLI; biotinylated monobody on streptavidin tip, NRAS(WT)·GDP at 50, 25, 12.5 and 6.25 nM; global 1:1 fit
[4] = biological target: T1, NRAS; experiment: BLI; biotinylated monobody on streptavidin tip, NRAS at 50, 25, 12.5 and 6.25 nM; global 1:1 fit; upper left panel, untitled on this sheet, NRAS(WT)·GDP by the layout of FIG. 2A
[5] = biological target: T1, NRAS; experiment: BLI; biotinylated monobody on streptavidin tip, NRAS at 50, 25, 12.5 and 6.25 nM; global 1:1 fit; upper right panel, untitled on this sheet, NRAS(WT)·GTPγS by the layout of FIG. 2A
[6] = biological target: T1, NRAS; experiment: yeast display, cells sorted for binding to NRAS (WT);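 also: Yeast-displayed monobody variants with one or two residue substitutions, monobody sequences read from cells recovered by sorting for binding to wild-type NRAS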
[7] = biological target: T1, NRAS; experiment: BLI; biotinylated monobody on streptavidin tip, NRAS at 50, 25, 12.5 and 6.25 nM; global 1:1 fit; upper left panel, untitled on this sheet, NRAS(WT)·GDP by the layout of FIG. 2A; remark: listed apart in the source
[8] = biological target: T1, NRAS; experiment: BLI; biotinylated monobody on streptavidin tip, NRAS at 50, 25, 12.5 and 6.25 nM; global 1:1 fit; upper right panel, untitled on this sheet, NRAS(WT)·GTPγS by the layout of FIG. 2A; remark: listed apart in the source

B1: Mb(NRAS_19) (designed binder)
chain: VSSVPTKLEVVAATPTSLLISWDAPAVTVDFYVITYGETGSYYPYAQEFKVPGSKSTATISGLSPGVDYTITVYAYQVIGAIWKYYSPISINYRT
Kd [1]: 0.83 nM
Kd [2]: 6.6 nM
Kd [3]: 1.8 nM

B2: Mb(NRAS_24) (designed binder)
chain: B1 chain with S41G, Y43A, P44W, Y45A, A46Y
Kd [4]: 2.6 nM
Kd [2]: 5.6 nM
Kd [5]: 0.52 nM

B3: Mb(NRAS_24) with the FG loop of SEQ ID NO: 66 (designed binder)
chain: B1 chain with S41G, Y43A, P44W, Y45A, A46Y, V78Y, I79V
notes: length of the loop entry not visible
binding result [6]: binds

B4: Mb(NRAS_24) with the FG loop of SEQ ID NO: 53 (designed binder)
chain: B1 chain with S41G, Y43A, P44W, Y45A, A46Y, G80L, A81H
notes: as for B3
binding result [6]: binds

B5: Mb(NRAS_24) with the FG loop of SEQ ID NO: 65 (designed binder)
chain: B1 chain with S41G, Y43A, P44W, Y45A, A46Y, V78Y, I79H
notes: as for B3
binding result [6]: binds

B6: Mb(NRAS_24) with the FG loop of SEQ ID NO: 55 (designed binder)
chain: B1 chain with S41G, Y43A, P44W, Y45A, A46Y, G80R, A81S
notes: as for B3
binding result [6]: binds

B7: Mb(NRAS_24) with the FG loop of SEQ ID NO: 63 (designed binder)
chain: B1 chain with S41G, Y43A, P44W, Y45A, A46Y, I79S
notes: as for B3
binding result [6]: binds

B8: Mb(NRAS_24) with the FG loop of SEQ ID NO: 57 (designed binder)
chain: B1 chain with S41G, Y43A, P44W, Y45A, A46Y, G80S, A81H
notes: as for B3
binding result [6]: binds

B9: Mb(NRAS_24) with the FG loop of SEQ ID NO: 61 (designed binder)
chain: B1 chain with S41G, Y43A, P44W, Y45A, A46Y, G80Y, A81H
notes: as for B3
binding result [6]: binds

B10: Mb(NRAS_24) with the FG loop of SEQ ID NO: 67 (designed binder)
chain: B1 chain with S41G, Y43A, P44W, Y45A, A46Y, V78Y, I79Y
notes: as for B3
binding result [6]: binds

B11: Mb(NRAS_24) with the FG loop of SEQ ID NO: 62 (designed binder)
chain: B1 chain with S41G, Y43A, P44W, Y45A, A46Y, G80Y, A81Y
notes: as for B3
binding result [6]: binds

B12: Mb(NRAS_24) with the FG loop of SEQ ID NO: 59 (designed binder)
chain: B1 chain with S41G, Y43A, P44W, Y45A, A46Y, G80S, A81Y
notes: as for B3
binding result [6]: binds

B18: Mb(NRAS_20) (designed binder)
chain: B1 chain with S41A
Kd [7]: 3.3 nM
Kd [8]: 1.1 nM
Kd [2]: 9.5 nM

Results, then the binder that gave them:

binding result [6]: binds
B13: Mb(NRAS_24) with the FG loop of SEQ ID NO: 60 (designed binder)
chain: B1 chain with S41G, Y43A, P44W, Y45A, A46Y, G80T, A81H
notes: as for B3

binding result [6]: binds
B14: Mb(NRAS_24) with the FG loop of SEQ ID NO: 58 (designed binder)
chain: B1 chain with S41G, Y43A, P44W, Y45A, A46Y, G80S, A81S
notes: as for B3

binding result [6]: binds
B15: Mb(NRAS_24) with the FG loop of SEQ ID NO: 54 (designed binder)
chain: B1 chain with S41G, Y43A, P44W, Y45A, A46Y, G80R, A81H
notes: as for B3

binding result [6]: binds
B16: Mb(NRAS_24) with the FG loop of SEQ ID NO: 56 (designed binder)
chain: B1 chain with S41G, Y43A, P44W, Y45A, A46Y, G80R, A81Y
notes: as for B3

binding result [6]: binds
B17: Mb(NRAS_24) with the FG loop of SEQ ID NO: 64 (designed binder)
chain: B1 chain with S41G, Y43A, P44W, Y45A, A46Y, V78Y, I79E
notes: as for B3
